Assay results taken from article PMC12029569, “Exploring the G-Quadruplex Formation of AS1411 Derivatives”.

Assays:
Conditions in all cases: label: 5'-Cy5; G-quadruplex
NCL RBD1,2 [1] = target: T1, NCL RBD1,2 (UniProt P19338 307-466); assay: fluorescence titration; Hill n 0.33; K100: 100 mM KCl, 10 mM lithium cacodylate pH 7.2; 100 nM Cy5-oligonucleotide pre-annealed, 5 min equilibration per protein addition; temperature not stated
NCL RBD2,3 [2] = target: T2, NCL RBD2,3 (UniProt P19338 393-560); assay: fluorescence titration; Hill n 0.49; SD exceeds Kd; K100: 100 mM KCl, 10 mM lithium cacodylate pH 7.2; 100 nM Cy5-oligonucleotide pre-annealed, 5 min equilibration per protein addition; temperature not stated
NCL RBD1,2 [3] = target: T1, NCL RBD1,2; assay: fluorescence titration; Hill n 0.24; K100: 100 mM KCl, 10 mM lithium cacodylate pH 7.2; 100 nM Cy5-oligonucleotide pre-annealed, 5 min equilibration per protein addition; temperature not stated
NCL RBD2,3 [4] = target: T2, NCL RBD2,3; assay: fluorescence titration; Hill n 2.08; K100: 100 mM KCl, 10 mM lithium cacodylate pH 7.2; 100 nM Cy5-oligonucleotide pre-annealed, 5 min equilibration per protein addition; temperature not stated
NCL RBD1,2 [5] = target: T1, NCL RBD1,2; assay: fluorescence titration; Hill n 0.20; SD exceeds Kd; K100: 100 mM KCl, 10 mM lithium cacodylate pH 7.2; 100 nM Cy5-oligonucleotide pre-annealed, 5 min equilibration per protein addition; temperature not stated
NCL RBD1,2 [6] = target: T1, NCL RBD1,2; assay: fluorescence titration; Hill n 0.31; SD exceeds Kd; K100: 100 mM KCl, 10 mM lithium cacodylate pH 7.2; 100 nM Cy5-oligonucleotide pre-annealed, 5 min equilibration per protein addition; temperature not stated
NCL RBD2,3 [7] = target: T2, NCL RBD2,3; assay: fluorescence titration; no measurable interaction; Hill fit not possible; up to 50 nM protein; K100: 100 mM KCl, 10 mM lithium cacodylate pH 7.2; 100 nM Cy5-oligonucleotide pre-annealed, 5 min equilibration per protein addition; temperature not stated
NCL RBD1,2 [8] = target: T1, NCL RBD1,2; assay: fluorescence titration; Hill n 1.89; K100: 100 mM KCl, 10 mM lithium cacodylate pH 7.2; 100 nM Cy5-oligonucleotide pre-annealed, 5 min equilibration per protein addition; temperature not stated
NCL RBD1,2 [9] = target: T1, NCL RBD1,2; assay: fluorescence titration; Hill n 0.37; main text prints 4.6 nM (conflict with Table S4); K100: 100 mM KCl, 10 mM lithium cacodylate pH 7.2; 100 nM Cy5-oligonucleotide pre-annealed, 5 min equilibration per protein addition; temperature not stated
NCL RBD2,3 [10] = target: T2, NCL RBD2,3; assay: fluorescence titration; Hill n 0.54; K100: 100 mM KCl, 10 mM lithium cacodylate pH 7.2; 100 nM Cy5-oligonucleotide pre-annealed, 5 min equilibration per protein addition; temperature not stated

T2 sequence (P19338 393-560): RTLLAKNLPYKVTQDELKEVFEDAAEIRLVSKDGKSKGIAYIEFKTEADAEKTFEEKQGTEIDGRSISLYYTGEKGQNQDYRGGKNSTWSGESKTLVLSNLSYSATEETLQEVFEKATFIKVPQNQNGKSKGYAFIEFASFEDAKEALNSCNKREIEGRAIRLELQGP
T1 sequence (P19338 307-466): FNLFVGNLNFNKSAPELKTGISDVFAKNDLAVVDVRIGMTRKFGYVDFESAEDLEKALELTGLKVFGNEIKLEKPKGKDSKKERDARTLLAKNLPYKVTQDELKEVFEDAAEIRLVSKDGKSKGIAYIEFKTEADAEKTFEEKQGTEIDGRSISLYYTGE

B1: Cy5-AT14-T2 (structured_DNA)
DNA: GGTGGTGGTGGTTGGTGGTGGTGG
Q: Which results are given for B1?
A: Kd (NCL RBD1,2 [1]): 0.01 ± 0.01 nM; Kd (NCL RBD2,3 [2]): 5.37 ± 7.21 nM

B2: Cy5-AT14T-T1 (structured_DNA)
DNA: TGGTGGTGGTGGTTTGGTGGTGGTGGT
Q: For B2, which Kd (NCL RBD1,2 [3]) is on record?
A: 3.39 ± 0.58 nM

B3: Cy5-AT14-T1 (structured_DNA)
DNA: GGTGGTGGTGGTTTGGTGGTGGTGG
Q: What does the source list for B3?
A: Kd (NCL RBD2,3 [4]): 2.16 ± 0.37 nM; Kd (NCL RBD1,2 [5]): 1.4 nM

B4: Cy5-AT14T (structured_DNA)
DNA: TGGTGGTGGTGGTTTTGGTGGTGGTGGT
Q: Which results are given for B4?
A: Kd (NCL RBD1,2 [6]): 8.34 ± 13.2 nM; binding result (NCL RBD2,3 [7]): no binding

B5: Cy5-AT14T-T2 (structured_DNA)
DNA: TGGTGGTGGTGGTTGGTGGTGGTGGT
Q: Does B5 bind (NCL RBD2,3 [7])?
A: no binding

Q: What about the Kd (NCL RBD1,2 [8]) of the same binder?
A: 1.48 ± 0.2 nM

B6: Cy5-AT14 (structured_DNA)
DNA: GGTGGTGGTGGTTTTGGTGGTGGTGG
Q: Which Kd (NCL RBD1,2 [9]) does the source give for B6 here?
A: 0.46 ± 0.12 nM

Q: And the Kd (NCL RBD2,3 [10])?
A: 0.08 ± 0.01 nM
